Measured values published in patent US20260242478A1 (published 2026).
Where no end group is shown, it is not given here.

Tests used:
[1] = target: T1, Anti-CD28 Fab (SEQ ID NOs: 696, 697); experiment: phage binding ELISA on captured Fab; wells pre-incubated with CD28 antigen as competitor
T1 construct: In the phage ELISA the Fab was biotinylated and captured on neutravidin coated plates
T1 sequence (VH, as listed by the source, chain 1 of 2): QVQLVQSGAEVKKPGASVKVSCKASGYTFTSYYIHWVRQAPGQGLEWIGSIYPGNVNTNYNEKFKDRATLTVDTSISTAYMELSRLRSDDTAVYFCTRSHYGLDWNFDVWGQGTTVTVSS
T1 sequence (VL, as listed by the source, chain 2 of 2): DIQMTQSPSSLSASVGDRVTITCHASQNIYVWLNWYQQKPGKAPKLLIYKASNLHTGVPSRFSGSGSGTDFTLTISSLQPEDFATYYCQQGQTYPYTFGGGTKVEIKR
Procedure: (§1) Clonal phage were harvested as crude supematants and screened via standard ELISAs. […] Prior to the addition of clonal phage, wells were incubated with blocking buffer and CD28 antigen or blocking buffer alone. Without washing or aspirating, clonal phage supematants were then added to the wells and incubated for a short time. Wells were then washed followed by detection of bound phage using a horse radish conjugated anti-M13 antibody.

[2] = target: T1, Anti-CD28 Fab (SEQ ID NOs: 696, 697); experiment: phage binding ELISA; biotinylated Fab on neutravidin plate, clonal phage supernatant, anti-M13 HRP detection
Procedure: Clonal phage were harvested as crude supematants and screened via standard ELISAs. […] Prior to the addition of clonal phage, wells were incubated with blocking buffer and CD28 antigen or blocking buffer alone. Without washing or aspirating, clonal phage supematants were then added to the wells and incubated for a short time. Wells were then washed followed by detection of bound phage using a horse radish conjugated anti-M13 antibody. Clonal phage of interest were then sent for sequence analysis.

[3] = target: T2, Anti-CD28 Fab (SEQ ID NOs: 696, 697); experiment: phage binding ELISA on captured Fab; CD28 antigen as competitor
T2 construct: In the phage ELISA the Fab was biotinylated and captured on neutravidin coated plates
T2 sequence (VH, as listed by the source, chain 1 of 2): as the sequence (VH, as listed by the source, chain 1 of 2) above
T2 sequence (VL, as listed by the source, chain 2 of 2): as the sequence (VL, as listed by the source, chain 2 of 2) above
Procedure: as §1

[4] = target: T2, Anti-CD28 Fab (SEQ ID NOs: 696, 697); experiment: phage binding ELISA; biotinylated Fab on neutravidin plate, anti-M13 HRP detection
Procedure: as §1

[5] = target: T3, Anti-CD28 Fab (SEQ ID NOs: 696, 697); experiment: phage binding ELISA; biotinylated anti-CD28 Fab on neutravidin plate, clonal phage supernatant, anti-M13 HRP detection;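 note: wells pretreated with blocking buffer, either plus or minus CD28 antigen, then given crude phage supernatant briefly without washing in between, then washed before anti-M13 HRP readout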
T3 construct: In the phage ELISA the Fab was biotinylated and captured on neutravidin coated plates
T3 sequence (VH, as listed by the source, chain 1 of 2): as the sequence (VH, as listed by the source, chain 1 of 2) above
T3 sequence (VL, as listed by the source, chain 2 of 2): as the sequence (VL, as listed by the source, chain 2 of 2) above
Procedure: as §1

[6] = target: T3, Anti-CD28 Fab (SEQ ID NOs: 696, 697); experiment: phage binding ELISA on plate-captured anti-CD28 Fab pre-incubated with CD28 antigen (competitor: CD28), anti-M13 HRP detection
Procedure: as §1

[7] = target: T4, Anti-PSMA Fab (SEQ ID NOs: 19, 20); experiment: phage binding ELISA; biotinylated anti-PSMA Fab on neutravidin plate, clonal phage supernatant, anti-M13-HRP detection
T4 construct: Used biotinylated and captured on neutravidin coated plates; also called 006 PSMA Fab
Procedure: (§2) Clonal phage were harvested as crude supernatants and screened via standard ELISAs. […] Prior to the addition of clonal phage. wells were incubated with blocking buffer and PSMA antigen or blocking buffer alone. Without washing or aspirating, clonal phage supernatants were then added to the wells and incubated for a short time. Wells were then washed followed by detection of bound phage using a horse radish conjugated anti-M13 antibody.

[8] = target: T4, Anti-PSMA Fab (SEQ ID NOs: 19, 20); experiment: phage binding ELISA; biotinylated anti-PSMA Fab on neutravidin plate, wells pre-incubated with PSMA antigen as competitor, anti-M13-HRP detection
Procedure: as §2

Binder	Anti-CD28 Fab signal in the presence of CD28 [1]	Anti-CD28 Fab (SEQ ID NOs: 696, 697) signal [2]	Anti-CD28 Fab signal in the presence of CD28 [3]	Anti-CD28 Fab (SEQ ID NOs: 696, 697) signal [4]	Phage binding ELISA, Anti-CD28 Fab signal [5]	Phage binding ELISA, Anti-CD28 Fab signal in the presence of CD28 [6]	also measured
TCAAGANYAWPVCL [Phage-1652]	0.13	1.09	–	–	–	–	–
TCSAGATYKWPTCL (tested as crude phage supernatant) [Phage-1669]	–	–	0.07	0.97	–	–	–
TCSAGATYGWPACF [Phage-1691]	–	–	–	–	0.76	0.07	–
SCAAGASYSWPLCF (tested as crude phage supernatant) [Phage-1672]	–	–	0.08	0.95	–	–	–
TCSAGAQWEWPACL [Phage-1700]	–	–	–	–	0.67	0.08	–
DCWWDSPYHWRVCL [Phage-1703]	–	–	–	–	0.57	0.07	–
IAVLCQPNWMCAGF (cysteine pairing not given here; also: fused to phage pIII (clonal phage display), also called Peptide-180; not shown: pIII coat protein of the bacteriophage to which the peptide is fused) [Phage-1708]	–	–	–	–	–	–	Anti-PSMA Fab (SEQ ID NOs: 19, 20) signal [7]: 0.997; Anti-PSMA Fab signal in the presence of PSMA [8]: 0.077
PCSAGATYAWPYCL [Phage-1696]	–	–	–	–	0.71	0.09	–
MCAAGAMYNWPLCL (tested as crude phage supernatant) [Phage-1671]	–	–	0.09	0.95	–	–	–
ICAAGAGWPWPWCL [Phage-1692]	–	–	–	–	0.75	0.1	–
ECSAGAMWGWPACF [Phage-1693]	–	–	–	–	0.73	0.09	–
MCTAGFSFNWPECL (tested as crude phage supernatant) [Phage-1661]	–	–	0.07	1.05	–	–	–
SCTAVFSYALSPCF (tested as crude phage supernatant) [Phage-1666]	–	–	0.05	0.99	–	–	–
TCAAGAVWQWPTCF [Phage-1695]	–	–	–	–	0.71	0.06	–
TCAAGATYDWPSCL [Phage-1694]	–	–	–	–	0.71	0.08	–
TCAAGATYNWPWCF [Phage-1654]	0.07	1.07	–	–	–	–	–
TCAAGAAYTWPHCF [Phage-1699]	–	–	–	–	0.69	0.11	–
SCAAGFHYEWPQCF [Phage-1658]	0.06	1.06	–	–	–	–	–
TCSAGATYTWPVCF [Phage-1648]	0.06	1.13	–	–	–	–	–
TCAAGATWTWPTCM [Phage-1655]	0.06	1.07	–	–	–	–	–
TCSAGATYSWPLCF [Phage-1650]	0.09	1.12	–	–	–	–	–
SCAAGSTWAWPACL [Phage-1657]	0.07	1.07	–	–	–	–	–

Binder	Anti-CD28 Fab signal in the presence of CD28 [1]	Anti-CD28 Fab (SEQ ID NOs: 696, 697) signal [2]	Anti-CD28 Fab signal in the presence of CD28 [3]	Anti-CD28 Fab (SEQ ID NOs: 696, 697) signal [4]	Phage binding ELISA, Anti-CD28 Fab signal [5]	Phage binding ELISA, Anti-CD28 Fab signal in the presence of CD28 [6]	also measured
PCAAGAHYVWPVCF (tested as crude phage supernatant) [Phage-1668]	–	–	0.06	0.97	–	–	–
TCSAGASYSWPYCM (tested as crude phage supernatant) [Phage-1664]	–	–	0.07	1	–	–	–
LCDQFFHYNWPACL (tested as crude phage supernatant) [Phage-1662]	–	–	0.05	1.04	–	–	–
TCAAGATYSWPSCF [Phage-1651]	0.07	1.1	–	–	–	–	–
LMKWCTPRWMCAAE (cysteine pairing not given here; also: fused to phage pIII (clonal phage display), not shown: pIII coat protein of the bacteriophage to which the peptide is fused) [Phage-1707]	–	–	–	–	–	–	Anti-PSMA Fab (SEQ ID NOs: 19, 20) signal [7]: 1.04; Anti-PSMA Fab signal in the presence of PSMA [8]: 0.232
WCSEVFSYPWPACL (tested as crude phage supernatant) [Phage-1665]	–	–	0.06	0.99	–	–	–
PCAAGAQWSWPMCL [Phage-1656]	0.09	1.07	–	–	–	–	–
SCAAGAHWSWPACL (tested as crude phage supernatant) [Phage-1670]	–	–	0.06	0.97	–	–	–
SCTAGFRIHWPMCF [Phage-1659]	0.12	1.06	–	–	–	–	–
WCSAVFSYQWPVCL [Phage-1701]	–	–	–	–	0.61	0.06	–
GCAAGAEYNWPTCL [Phage-1698]	–	–	–	–	0.69	0.64	–
VCAAGAAYPWPACL (tested as crude phage supernatant) [Phage-1673]	–	–	0.07	0.93	–	–	–
SCAAGAAYAWPWCL [Phage-1660]	0.07	1.05	–	–	–	–	–
LCAAVFAYTWPMCF (tested as crude phage supernatant) [Phage-1667]	–	–	0.07	0.98	–	–	–
SCSAGASYAWPMCI [Phage-1702]	–	–	–	–	0.59	0.06	–
TCSAGATYKWPMCF [Phage-1690]	–	–	–	–	0.77	0.07	–
TCSAGAHYPWPMCL (tested as crude phage supernatant) [Phage-1674]	–	–	0.06	0.93	–	–	–
QCAAGATYPWPVCL [Phage-1647]	0.09	1.13	–	–	–	–	–
TCSAGAHYEWPKCL [Phage-1649]	0.07	1.12	–	–	–	–	–
TCAAGAQLEWPWCF [Phage-1697]	–	–	–	–	0.7	0.07	–
SCAAVFSFNWPECF (tested as crude phage supernatant) [Phage-1663]	–	–	0.07	1.01	–	–	–
TCAAGAHYEWPQCF [Phage-1653]	0.06	1.08	–	–	–	–	–
